Laboratory results reported in publication PMC5114395.

Molecular target: Ku heterodimer (Ku70 and Ku80) (UniProt P12956)
Chain of UniProt P12956 (P12956 whole entry, chain 1 of 2): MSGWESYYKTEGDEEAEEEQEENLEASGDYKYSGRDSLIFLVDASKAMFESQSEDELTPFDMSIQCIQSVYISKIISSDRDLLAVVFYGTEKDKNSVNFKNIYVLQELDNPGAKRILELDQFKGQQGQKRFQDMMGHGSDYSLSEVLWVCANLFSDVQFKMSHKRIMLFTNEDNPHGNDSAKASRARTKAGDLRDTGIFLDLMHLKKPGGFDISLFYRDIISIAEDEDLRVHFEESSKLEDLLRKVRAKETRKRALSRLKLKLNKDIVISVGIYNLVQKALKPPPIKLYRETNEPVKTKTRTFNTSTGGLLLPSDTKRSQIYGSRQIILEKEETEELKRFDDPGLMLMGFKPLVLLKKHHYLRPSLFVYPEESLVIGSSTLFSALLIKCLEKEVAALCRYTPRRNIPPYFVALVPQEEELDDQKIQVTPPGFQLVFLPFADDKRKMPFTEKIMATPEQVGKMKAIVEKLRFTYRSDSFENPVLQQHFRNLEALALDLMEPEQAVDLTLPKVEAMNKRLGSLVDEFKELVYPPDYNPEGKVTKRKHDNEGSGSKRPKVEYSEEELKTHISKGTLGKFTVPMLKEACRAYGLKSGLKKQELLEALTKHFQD
Chain of UniProt P12956 (P13010 whole entry, chain 2 of 2, further chain): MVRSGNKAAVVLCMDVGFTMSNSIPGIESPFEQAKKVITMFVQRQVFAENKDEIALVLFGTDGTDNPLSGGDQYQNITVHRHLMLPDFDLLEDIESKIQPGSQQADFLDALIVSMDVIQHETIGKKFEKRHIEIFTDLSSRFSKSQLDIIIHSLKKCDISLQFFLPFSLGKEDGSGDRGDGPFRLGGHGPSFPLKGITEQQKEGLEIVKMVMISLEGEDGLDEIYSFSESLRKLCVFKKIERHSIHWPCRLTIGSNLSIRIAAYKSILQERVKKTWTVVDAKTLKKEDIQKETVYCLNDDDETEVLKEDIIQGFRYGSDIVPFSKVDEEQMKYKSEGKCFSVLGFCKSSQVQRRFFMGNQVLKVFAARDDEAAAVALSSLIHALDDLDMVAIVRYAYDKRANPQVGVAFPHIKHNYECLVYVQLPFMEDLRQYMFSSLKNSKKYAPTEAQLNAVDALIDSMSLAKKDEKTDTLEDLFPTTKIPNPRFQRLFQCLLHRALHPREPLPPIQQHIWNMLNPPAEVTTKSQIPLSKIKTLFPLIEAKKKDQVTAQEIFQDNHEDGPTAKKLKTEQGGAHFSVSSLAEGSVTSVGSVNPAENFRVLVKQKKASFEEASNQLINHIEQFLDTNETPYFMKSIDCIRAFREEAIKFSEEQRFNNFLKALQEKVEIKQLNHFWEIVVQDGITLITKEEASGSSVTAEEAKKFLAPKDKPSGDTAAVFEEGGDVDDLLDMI

- NHEJ efficiency of blunt-ended DNA with Ku, DNA-PKcs, Artemis, X4·LIV and Pol μ, without or with 500 nM PAXX (Fig. 7B, lanes 12–15): 2 fold
Substance: PAXX (paralog of XRCC4 and XLF) (from UniProt Q9BUH6 1-204) (natural protein)
